# Measured values from patent US11466286B2, “Methods and compositions for conferring and/or enhancing herbicide tolerance using protoporphyrinogen oxidase or variant thereof” (FarmHannong Co., Ltd., priority 2016, dated 2022).
# Test system: CyPPO10
# Assay: PPO enzyme activity and IC50 by herbicides, CyPPO10 wild type and variants (MBP-PPO fusion)
# Type: biochemical, Thermosynechococcus elongatus BP-1
# Conditions: PPO enzyme activity of CyPPO10 protein, wild type = 100
# Procedure: The enzyme activities of PPO protein and PPO protein variants were examined, and inhibition assay by PPO-inhibiting herbicides was conducted. It was confirmed that the PPO protein has low water-solubility, but in case of being expressed as a fusion protein with MBP (maltose binding protein) (MBP-PPO), the PPO protein is able to be stably expressed as water-soluble form. Therefore, the wild type and variant proteins which were expressed in the form of fusion protein with MBP were used in the present test (refer to FIG. 4).
# In order to express wild type genes and mutant genes of CyPPO10 and CyPPO13 (refer to Example 1 and Example 4), those genes were introduced to pMAL-c2X vector (refer to FIG. 5) respectively, and then cloned to BL21 (DE3) E. coli (CodonPlus).
# The enzyme activity of the purified wild type protein and variant proteins of CyPPO10 and CyPPO13 was measured by the following process.
# At first, a substrate of PPO protein, Protoporphyrinogen IX was synthesized. This process was performed in the space where nitrogen gas is streamed. 6 mg of protoporphyrin IX was dissolved in 20% (v/v) EtOH 20 ml, and stirred under dark condition for 30 minutes. The obtained protoporphyrinogen IX solution was put into a 15 ml screw tube in an amount of 800 and flushed with nitrogen gas for 5 minutes. To this, 1 g of sodium amalgam was added and vigorous shaking was performed for 2 minutes. The lid was open to exhaust hydrogen gas in the tube. Thereafter, the lid was closed and incubated for 3 minutes. The […] was filtered using syringe and cellulose membrane filter. To 600 μl of the obtained […], 2M MOPS [3-(N-morpholino)propanesulfonic acid] was added in an amount of approximately 300 thereby adjusting pH to 8.0. To determine the enzyme activity of PPO protein, a reaction mixture was prepared with the following composition (based on 10 ml): 50 mM Tris-Cl (pH 8.0); 50 mM NaCl; 0.04% (v/v) Tween 20; 40 mM glucose (0.072 g); 5 units glucose oxidase (16.6 mg); and 10 units catalase (1 μl).
# Two hundred microliters (200 μl) of reaction mixture containing a purified PPO protein were placed in 96 well plates, and preincubated for 30 min at room temperature to reduce the oxygen concentration by the reaction of glucose oxidase-catalase. The mineral oil was layered and then the reaction was initiated by adding the substrate, […], to a final concentration of 50 μM. The reaction proceeded at room temperature for 30 min and the fluorescence of protoporphyrin IX was measured using Microplate reader (Sense, Hidex) (excitation: 405 nm; emission: 633 nm). To calculate the PPO enzyme activity, protoporphyrinogen IX solution was kept open in the air to oxidize the solution (overnight). To this, 2.7N HCl was added, and the absorbance at 408 nm was measured. A standard curve was generated using standard protoporphyrin IX, and the PPO activity was measured by calibration of protoporphyrin IX using the standard curve of protoporphyrin IX.
# The final concentration of each herbicide was as follows: […]
row,Molecule,Activity (%)
1,"CyPPO10 F360V: CyPPO10 (SEQ ID NO: 2) PPO variant (protein, Synthetic CyPPO10) MIEVDVAIVGGGLSGLSVAWRLQRSAPHYSGVLLEASDRLGGNITTQAAEGFVWELGPNSFAPTPALLQLIAEVGLHSELIRGDRHLPRYIYWRGELYPLEPTRPLALATSNLLSPWGKVRAALGALGFVPPYLGSGDESVDSFFRRHLGQEVAERLVAPFVSGVYAGDPQQLSAAAAFRRIAQLEKLGGSLIAGALRLRRQQPPQPKPPAQVQMRPGELGSFREGLAALPRAIAQQLKAPLHLQTPVEAITPEPKGGYLLRSGEQTWHARSVVLATPAYQTAELVAPFQPAIARALATIPYPTVACVVLAYPAGLGRSVRPGFGVLVPRGQGIRTLGTIWSSCLFPQRTPAGWQVFTSVIGGATDPDLASLREEAIVEQVQQDLTRLLDLPAAKARLLGMKVWRRAIPQYIVGYPQQWQQVTHALTQTPGLFLCSNYAEGVALGDRVEHGNRTAAAVAAYLAGGQS",56
2,"CyPPO10 R89A + F360I: CyPPO10 (SEQ ID NO: 2) PPO variant (protein, Synthetic CyPPO10) MIEVDVAIVGGGLSGLSVAWRLQRSAPHYSGVLLEASDRLGGNITTQAAEGFVWELGPNSFAPTPALLQLIAEVGLHSELIRGDRHLPAYIYWRGELYPLEPTRPLALATSNLLSPWGKVRAALGALGFVPPYLGSGDESVDSFFRRHLGQEVAERLVAPFVSGVYAGDPQQLSAAAAFRRIAQLEKLGGSLIAGALRLRRQQPPQPKPPAQVQMRPGELGSFREGLAALPRAIAQQLKAPLHLQTPVEAITPEPKGGYLLRSGEQTWHARSVVLATPAYQTAELVAPFQPAIARALATIPYPTVACVVLAYPAGLGRSVRPGFGVLVPRGQGIRTLGTIWSSCLFPQRTPAGWQVFTSIIGGATDPDLASLREEAIVEQVQQDLTRLLDLPAAKARLLGMKVWRRAIPQYIVGYPQQWQQVTHALTQTPGLFLCSNYAEGVALGDRVEHGNRTAAAVAAYLAGGQS",38
3,"CyPPO10 N59T + F360V: CyPPO10 (SEQ ID NO: 2) PPO variant (protein, Synthetic CyPPO10) MIEVDVAIVGGGLSGLSVAWRLQRSAPHYSGVLLEASDRLGGNITTQAAEGFVWELGPTSFAPTPALLQLIAEVGLHSELIRGDRHLPRYIYWRGELYPLEPTRPLALATSNLLSPWGKVRAALGALGFVPPYLGSGDESVDSFFRRHLGQEVAERLVAPFVSGVYAGDPQQLSAAAAFRRIAQLEKLGGSLIAGALRLRRQQPPQPKPPAQVQMRPGELGSFREGLAALPRAIAQQLKAPLHLQTPVEAITPEPKGGYLLRSGEQTWHARSVVLATPAYQTAELVAPFQPAIARALATIPYPTVACVVLAYPAGLGRSVRPGFGVLVPRGQGIRTLGTIWSSCLFPQRTPAGWQVFTSVIGGATDPDLASLREEAIVEQVQQDLTRLLDLPAAKARLLGMKVWRRAIPQYIVGYPQQWQQVTHALTQTPGLFLCSNYAEGVALGDRVEHGNRTAAAVAAYLAGGQS",62
4,"CyPPO10 R89A + F360M: CyPPO10 (SEQ ID NO: 2) PPO variant (protein, Synthetic CyPPO10) MIEVDVAIVGGGLSGLSVAWRLQRSAPHYSGVLLEASDRLGGNITTQAAEGFVWELGPNSFAPTPALLQLIAEVGLHSELIRGDRHLPAYIYWRGELYPLEPTRPLALATSNLLSPWGKVRAALGALGFVPPYLGSGDESVDSFFRRHLGQEVAERLVAPFVSGVYAGDPQQLSAAAAFRRIAQLEKLGGSLIAGALRLRRQQPPQPKPPAQVQMRPGELGSFREGLAALPRAIAQQLKAPLHLQTPVEAITPEPKGGYLLRSGEQTWHARSVVLATPAYQTAELVAPFQPAIARALATIPYPTVACVVLAYPAGLGRSVRPGFGVLVPRGQGIRTLGTIWSSCLFPQRTPAGWQVFTSMIGGATDPDLASLREEAIVEQVQQDLTRLLDLPAAKARLLGMKVWRRAIPQYIVGYPQQWQQVTHALTQTPGLFLCSNYAEGVALGDRVEHGNRTAAAVAAYLAGGQS",67
